Measured values reported in article PMC11672684 (Cell Reports, 2024).

What was measured:
[1] = molecular target: H5 HA (Influenza A virus H5, assay strain not …, UniProt A5A5L7); assay: ELISA + BLI; settings: both partners purified
[2] = molecular target: H7 A/Anhui/1/2013 HA (Influenza A virus A/Anhui/1/2013 (H7N9), UniProt A0A024E3P0); assay: BLI; […], dissociation 5 min; 1% BSA in PBS; 30°C; […]; settings: both partners purified

B1: 43_S0008 (antibody, V domains shown)
VH: QVQLVQSGAEVKKPGSSVKVSCKASGGTFRTFGISWVRQAPGQGLEWMGWIIPIIGTPNYAQKFQGRVIITADESSNTAYMELNSLKSEDTAVYYCAKEGRALLRYFDWLPLDAFDIWGQGTMVTVSS
VL: DIVLTQTPLSLPVSLGDQASISCRSSQSLVHSDGNTYLHWYLQKPGQSPKLLIYKVSNRFSGVPDRFSGSGSGTDFTLKISRVEAEDLGVYFCSQSTHVPPLTFGAGTKLELK
notes: also called mAb 43_S0008; IGHV1-69 + IGHD3-9 mAb 43_S0008; source: Expi293 cells, purified (protein A)
[1]
  binding result: binds
[2]
  binding result: binds
